# Assays:
# [1] = target: T1, His-tagged recombinant human PD-L1 protein (Sino Biological #10084-H08H) (Homo sapiens, UniProt Q9NZQ7); experiment: SPR; Biacore T200, 25°C, HBS (0.01 M HEPES pH 7.4, 0.15 M NaCl, 3 mM EDTA, 0.005% Tween 20); His-tagged recombinant human PD-L1 amine-coupled on a CM5 chip (650-900 RU); purified Nb as analyte, 9 dilutions (0.15-1000 nM), 120 s association, 160 s dissociation; 1-to-1 fit; n = 1; conditions: both partners purified
# T1 construct: programmed death-ligand 1 (PD-L1, B7-H1, CD274), human; also called huPD-L1; source: bought: Sino Biological (#10084-H08H)
# [2] = target: T2, His-tagged recombinant mouse PD-L1 protein (Mus musculus, UniProt Q9EP73); experiment: SPR; His-tagged mouse or human PD-L1 immobilised on a CM5 chip (EDC/NHS, between 650 and 900 RU); purified Nbs, 9 dilutions, 120 sec binding, 160 sec dissociation; Biacore T200, 25°C, HBS (0.01 M HEPES pH 7.4, 0.15 M NaCl, 3 mM EDTA, 0.005% Tween 20); 1-to-1 fit; n = 1; conditions: both partners purified
# T2 construct: programmed death-ligand 1 (PD-L1, B7-H1, CD274), mouse; also called programmed death-ligand 1; B7-H1; source: bought: Sino Biological #50010-M08H
# [3] = target: T2, His-tagged recombinant mouse PD-L1 …
# [4] = target: T3, Mouse PD-L1 Fc-fusion protein (R&D Systems, 1019-B7) (Mus musculus, UniProt Q9EP73); experiment: SPR; Biacore T200, 25°C, HBS (0.01 M HEPES pH 7.4, 0.15 M NaCl, 3 mM EDTA, 0.005% Tween 20); mouse or human PD-L1 Fc-fusion protein amine-coupled on a CM5 chip (650-900 RU); Nb in crude periplasmic extract as analyte, its concentration estimated by CFCA; 9 dilutions, 120 s association, 160 s dissociation; 1-to-1 fit; affinity estimations; conditions: one partner purified
# T3 construct: programmed death-ligand 1 (PD-L1, B7-H1, CD274), mouse; also called moPD-L1; B7-H1; source: bought: R&D Systems (1019-B7)
# [5] = target: T4, Human PD-L1 Fc-fusion protein (R&D Systems, 156-B7) (Homo sapiens, UniProt Q9NZQ7); experiment: as above; conditions: one partner purified
# T4 construct: programmed death-ligand 1 (PD-L1, B7-H1, CD274), human; also called huPD-L1; B7-H1; source: bought: R&D Systems (156-B7)
# T4 sequence (Q9NZQ7 19-238): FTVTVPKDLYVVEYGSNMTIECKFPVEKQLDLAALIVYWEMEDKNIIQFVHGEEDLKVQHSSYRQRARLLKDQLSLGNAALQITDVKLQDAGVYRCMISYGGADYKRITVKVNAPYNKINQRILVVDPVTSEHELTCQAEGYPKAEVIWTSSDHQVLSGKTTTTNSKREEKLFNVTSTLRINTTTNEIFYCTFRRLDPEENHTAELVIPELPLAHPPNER
# T1 sequence (Q9NZQ7 19-238): as above
# T2 sequence (Q9EP73 19-239): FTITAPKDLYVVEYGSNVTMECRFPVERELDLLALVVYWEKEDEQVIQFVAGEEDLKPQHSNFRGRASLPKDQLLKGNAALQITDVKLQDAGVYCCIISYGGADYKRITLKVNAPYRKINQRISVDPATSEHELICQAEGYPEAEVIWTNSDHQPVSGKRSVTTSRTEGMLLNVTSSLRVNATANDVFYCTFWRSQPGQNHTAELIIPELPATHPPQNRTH
# T3 sequence (Q9EP73 19-239): as above
Binder,Kd [1],Kd [2],further results
"Nb C3 (VHH, Nanobody from a dromedary immunised with RAW264.7 cells; recloned into pHEN6 for the C-terminal His6 tag; also called anti-PD-L1 Nb C3; source: E. coli fermentation cultures, purified; not shown: His6, C-terminal, kept) VHH: QVQLQESGGGLVQTGGSLRLSCAASGSTVSSSMMAWWRQTPGNQRELVALVASGNNTNYVDSVKGRFTVSRDNAKNTMYLQMNSLKPEDTAVYYCRILSVNGIWYWGQGTQVTVSS",–,0.5 nM,–
F1 (VHH) VHH: QVQLQESGGGLVQAGGSLRLSCTASRTTSSINIMAWYRQAPGKRRELVALSIRGGNTHYADSVKGRFTISGVHANNTVYLQMNSLKPEDTAVYYCNTGGYWGQGTQVTVSS,–,–,binding result [3]: binds
"Nb E2 (purified, C-terminal His6 tag) (VHH, source: E. coli (pHEN6), purified; not shown: His6, C-terminal, kept) VHH: QVQLQESGGGLVQAGGSLRLSCATSGSIFSIISMGWYRQAPGKQRELVALVFRGGSTVYADSVKGRFTISGDIAKNTVYLQMDSLKPEDTAVYYCNVKSIGTAQYWGQGTQITVSS",55.1 nM,–,–
"Nb E4 (VHH, Nanobody from a dromedary immunised with RAW264.7 cells; recloned into pHEN6 for the C-terminal His6 tag; also called anti-PD-L1 Nb E4; source: E. coli fermentation cultures, purified; not shown: His6, C-terminal, kept) VHH: QVQLQESGGGLVHPGGSLRLSCATSGSIFSIISMGWYRQAPGKQRELVALVFRGGSTVYADSVKGRFTISGDIAKSTVYLQMDSLKPEDTAVYYCNAKPIGTAQYWGQGTQVTVSS",–,4 nM,–
"Nb E4 (purified, C-terminal His6 tag) (VHH, source: E. coli (pHEN6), purified; not shown: His6, C-terminal, kept) VHH: QVQLQESGGGLVHPGGSLRLSCATSGSIFSIISMGWYRQAPGKQRELVALVFRGGSTVYADSVKGRFTISGDIAKSTVYLQMDSLKPEDTAVYYCNAKPIGTAQYWGQGTQVTVSS",46.1 nM,–,–
"Nb C4 (HA-tagged, in periplasmic extract) (VHH, source: E. coli WK6 (pHEN4), crude periplasmic extract) VHH: QVQLQESGGGLVQPGGSLRLSCAASGSTVSSSMMAWWRQTPGNQRELVALVASGNNTNYVDSVKGRFTVSRDNAKNTMYLQMNGLKPEDTAVYYCRLSVNGIWYWGQGTQVTVSS",–,–,Kd [4]: 0.187 nM; Kd [5]: 342 nM
"Nb C7 (purified, C-terminal His6 tag) (VHH, source: E. coli (pHEN6), purified; not shown: His6, C-terminal, kept) VHH: QVQLQESGGGSVQAGESLTLSCTASGSSLSHKSVGWWRQTPGNQRELVALVASGNNTNYVDSVKGRFTVSRDNAKNTMYLQMNSLKPEDTAVYYCRILSVNGIWYWGQGTQVTVSS",74.5 nM,–,–
H1 (VHH) VHH: QVQLQESGGGLVQAGGSLRLSCAASGRTFSSRGMGWFRQAPGKEREFVAAISWGGGTTYYADSVKGRFTISRDNAKNTVYLQMNSLKPEDTAVYYCAAHTGFPHEYDYWGQGTQVTVSS,–,–,binding result [3]: binds

# More lines, main results first:
Kd [1],Kd [2],Binder,further results
170 nM,–,"Nb C3 (purified, C-terminal His6 tag) (VHH, source: E. coli (pHEN6), purified; not shown: His6, C-terminal, kept) VHH: QVQLQESGGGLVQTGGSLRLSCAASGSTVSSSMMAWWRQTPGNQRELVALVASGNNTNYVDSVKGRFTVSRDNAKNTMYLQMNSLKPEDTAVYYCRILSVNGIWYWGQGTQVTVSS",–
–,2.1 nM,"Nb E2 (VHH, Nanobody from a dromedary immunised with RAW264.7 cells; recloned into pHEN6 for the C-terminal His6 tag; also called anti-PD-L1 Nb E2; source: E. coli fermentation cultures, purified; not shown: His6, C-terminal, kept) VHH: QVQLQESGGGLVQAGGSLRLSCATSGSIFSIISMGWYRQAPGKQRELVALVFRGGSTVYADSVKGRFTISGDIAKNTVYLQMDSLKPEDTAVYYCNVKSIGTAQYWGQGTQITVSS",–
–,17 nM,"Nb C7 (VHH, Nanobody from a dromedary immunised with RAW264.7 cells; recloned into pHEN6 for the C-terminal His6 tag; also called anti-PD-L1 Nb C7; source: E. coli fermentation cultures, purified; not shown: His6, C-terminal, kept) VHH: QVQLQESGGGSVQAGESLTLSCTASGSSLSHKSVGWWRQTPGNQRELVALVASGNNTNYVDSVKGRFTVSRDNAKNTMYLQMNSLKPEDTAVYYCRILSVNGIWYWGQGTQVTVSS",–

# From paper PMC5522039, “Non-invasive assessment of murine PD-L1 levels in syngeneic tumor models by nuclear imaging with nanobody tracers” (Oncotarget, 2017)
